Patent US20160137728A1 (ROCHE DIAGNOSTICS OPERATIONS, published 2016)
Ends that are not written are not given here.

T1: SEQ ID NO 43 (human, also: covalently linked to cellulose)
T1 construct: Spot on the CelluSpots peptide array; also called F-Y-F-G-N-K-P-T-G-Y-G-S-S-S-R
T1 peptide: FYFGNKPTGYGSSSR

T2: SEQ ID NO 44 (human, also: covalently linked to cellulose)
T2 construct: Spot on the CelluSpots peptide array; also called Y-F-G-N-K-P-T-G-Y-G-S-S-S-R-R
T2 peptide: YFGNKPTGYGSSSRR

T3: SEQ ID NO 45 (human, also: covalently linked to cellulose)
T3 construct: Spot on the CelluSpots peptide array; also called F-G-N-K-P-T-G-Y-G-S-S-S-R-R-A
T3 peptide: FGNKPTGYGSSSRRA

T4: SEQ ID NO 46 (human, also: covalently linked to cellulose)
T4 construct: Spot on the CelluSpots peptide array; also called G-N-K-P-T-G-Y-G-S-S-S-R-R-A-P
T4 peptide: GNKPTGYGSSSRRAP

T5: SEQ ID NO 47 (human, also: covalently linked to cellulose)
T5 construct: Spot on the CelluSpots peptide array; also called N-K-P-T-G-Y-G-S-S-S-R-R-A-P-Q
T5 peptide: NKPTGYGSSSRRAPQ

T6: SEQ ID NO 48 (human, also: covalently linked to cellulose)
T6 construct: Spot on the CelluSpots peptide array; also called K-P-T-G-Y-G-S-S-S-R-R-A-P-Q-T
T6 peptide: KPTGYGSSSRRAPQT

T7: SEQ ID NO 49 (human, also: covalently linked to cellulose)
T7 construct: Spot on the CelluSpots peptide array; also called P-T-G-Y-G-S-S-S-R-R-A-P-Q-T-G
T7 peptide: PTGYGSSSRRAPQTG

T8: SEQ ID NO 50 (human, also: covalently linked to cellulose)
T8 construct: Spot on the CelluSpots peptide array; also called T-G-Y-G-S-S-S-R-R-A-P-Q-T-G-G
T8 peptide: TGYGSSSRRAPQTGG

T9: Thermus thermophilus wild type SlyD polypeptide (Thermus thermophilus)
T9 construct: Used as negative control; also called wild-type Thermus thermophilus SlyD; Thermus thermophilus-SlyD
T9 chain: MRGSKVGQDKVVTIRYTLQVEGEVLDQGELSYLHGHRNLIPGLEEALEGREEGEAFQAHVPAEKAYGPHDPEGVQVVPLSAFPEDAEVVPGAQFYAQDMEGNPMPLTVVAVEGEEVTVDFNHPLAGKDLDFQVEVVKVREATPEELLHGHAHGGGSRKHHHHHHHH

T10: Thermococcus gammatolerans wild-type SlyD polypeptide (Thermococcus gammatolerans)
T10 construct: also called wild-type Thermococcus gammadurans SlyD; native SlyD from Thermococcus gammatolerans
T10 chain: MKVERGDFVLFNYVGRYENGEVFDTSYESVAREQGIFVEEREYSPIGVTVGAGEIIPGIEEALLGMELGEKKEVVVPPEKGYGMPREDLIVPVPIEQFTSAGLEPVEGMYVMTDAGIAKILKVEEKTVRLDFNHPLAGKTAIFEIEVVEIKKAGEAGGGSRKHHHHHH

T11: Thermococcus gammatolerans SlyD-IGF-2(53-65) fusion polypeptide
T11 construct: Human IGF-2 amino acids 53-65 inserted into the Thermococcus gammatolerans SlyD scaffold, with GS spacer and hexahistidine tag; also called Thermococcus gammadurans SlyD-IGF-2 (53-65)
T11 chain: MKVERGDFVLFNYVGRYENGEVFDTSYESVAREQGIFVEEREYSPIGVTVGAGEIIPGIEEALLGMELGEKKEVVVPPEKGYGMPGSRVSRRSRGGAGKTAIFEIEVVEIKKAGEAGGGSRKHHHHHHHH


Experiments:
SEQ ID NO 43 = molecular target: T1, SEQ ID NO 43; experiment: CelluSpots peptide array, chemiluminescence
Protocol: (§1) Each peptide synthesized was shifted by one amino acid, i.e. it had 14 amino acids overlap with the previous and the following peptide, respectively. For preparation of the peptide arrays the Intavis CelluSpots™ technology was employed. In this approach, peptides are synthesized with an automated synthesizer (Intavis MultiPep RS) on modified cellulose disks which are dissolved after synthesis. The solutions of individual peptides covalently linked to macromolecular cellulose are then spotted onto coated microscope slides. The CelluSpots™ synthesis was carried out stepwise utilizing 9-fluorenylmethoxycarbonyl (Fmoc) chemistry on amino-modified cellulose disks in a 384-well synthesis plate. In each coupling cycle, the corresponding amino acids were activated with a solution of DIC/HOBt in DMF. Between coupling steps un-reacted amino groups were capped with a mixture of acetic anhydride, diisopropylethyl amine and 1-hydroxybenzotriazole. Upon completion of the synthesis, the cellulose disks were transferred to a 96-well plate and treated with a mixture of trifluoroacetic acid (TFA), dichloromethane, triisoproylsilane (TIS) and water for side chain deprotection. After removal of the cleavage solution, the cellulose bound peptides are dissolved with a mixture of TFA, TFMSA, TIS and water, precipitated with diisopropyl ether and re-suspended in DMSO. The peptide solutions were subsequently spotted onto Intavis CelluSpots™ slides using an Intavis slide spotting robot.
(§2) For epitope analysis, the slides prepared as described above were washed with ethanol and then with Tris-buffered saline (TBS; 50 mM Tris, 137 mM NaCl, 2.7 mM KCl, pH 8) before blocking for 16 h at 4° C. with 5 mL 10× Western Blocking Reagent (Roche Applied Science), 2.5 g sucrose in TBS, 0.1% Tween 20. The slide was washed with TBS and 0.1% Tween 20 and incubated afterward with 1 µg/mL of the corresponding IGF1 antibodies in TBS and 0.1% Tween 20 at ambient temperature for 2 h and subsequently washed with TBS+0.1% Tween 20. For detection, the slide was incubated with anti-rabbit/anti-mouse secondary HRP-antibody (1:20000 in TBS-T) followed by incubation with chemiluminescence substrate luminol and visualized with a Lumilmager (Roche Applied Science). ELISA-positive SPOTs were quantified and through assignment of the corresponding peptide sequences the antibody binding epitopes were identified.

SEQ ID NO 44 = molecular target: T2, SEQ ID NO 44; experiment: CelluSpots peptide array, chemiluminescence
Protocol: as §1, §2

SEQ ID NO 45 = molecular target: T3, SEQ ID NO 45; experiment: CelluSpots peptide array, chemiluminescence
Protocol: as §1, §2

SEQ ID NO 46 = molecular target: T4, SEQ ID NO 46; experiment: CelluSpots peptide array, chemiluminescence
Protocol: as §1, §2

SEQ ID NO 47 = molecular target: T5, SEQ ID NO 47; experiment: CelluSpots peptide array, chemiluminescence
Protocol: as §1, §2

SEQ ID NO 48 = molecular target: T6, SEQ ID NO 48; experiment: CelluSpots peptide array, chemiluminescence
Protocol: as §1, §2

SEQ ID NO 49 = molecular target: T7, SEQ ID NO 49; experiment: CelluSpots peptide array, chemiluminescence
Protocol: as §1, §2

SEQ ID NO 50 = molecular target: T8, SEQ ID NO 50; experiment: CelluSpots peptide array, chemiluminescence
Protocol: as §1, §2

[1] = molecular target: T12, human insulin-like growth factor-1 (mature, recombinant native IGF-1, Peprotech Cat.#100-11) (human, UniProt P05019 49-118); experiment: ELISA, clone culture supernatant
T12 construct: In SPR it was the analyte in solution; also called native recombinant IGF-1; human IGF-1

[2] = molecular target: T9, Thermus thermophilus wild type SlyD …; experiment: ELISA, clone culture supernatant
[3] = molecular target: T10, Thermococcus gammatolerans wild-type …; experiment: SPR (BIAcore T200), 25 C, antibody captured, antigen in solution
Protocol: (§3) The BIAcore T200 System was driven under the control software V1.1.1. Polyclonal rabbit IgG antibody <IgGFCγM>R (Jackson ImmunoResearch Laboratories Inc.) was immobilized at 30 μg/ml in 10 mM sodium acetate buffer (pH 4.5) at 6500 RU on the flow cells 1, 2, 3, and 4, respectively, via EDC/NHS chemistry according to the manufacturer's instructions. Finally, the sensor surface was blocked with a 1 M ethanolamine solution. The complete experiment was performed at 25° C.
(§4) The clone culture supernatants containing the respective antibodies at approx. 40 nM were captured for 2 min at a flow rate of 5 μl/min on the <IgGFCγM>R surface. As analytes in solution the recombinant native IGF-1 (Peprotech Inc. Cat.#100-11), recombinant native IGF-2 (Peprotech Inc. Cat.#100-12), Thermus thermophilus SlyD-IGF-1(74-90), recombinant wild-type Thermus thermophilus SlyD, recombinant Thermus thermophilus SlyD-ΔIF, recombinant wild-type Thermococcus gammadurans SlyD, recombinant Thermococcus gammadurans SlyD-IGF-2 (53-65) fusion polypeptides were used. Thermus thermophilus SlyD-ΔIF is solely the FKBP domain of Thermus thermophilus SlyD lacking the IF domain. Thermococcus gammadurans SlyD-IGF-2(53-65) was used to counterscreen and investigate the specificity for the IGF-1 hairpin in contrast to the IGF-2 hairpin insertion. The respective analytes were injected at different concentration steps from 90 nM, 30 nM, 10 nM, 3.3 nM, 1.1 nM and 0 nM. The association phase was monitored for 3 min. at a flow rate of 100 μl/min. The dissociation was monitored for 10 min. at a flow rate of 100 μl/min. The system was regenerated using a 10 mM glycine buffer (pH 1.7). Kinetics were evaluated using the BIAcore Evaluation Software.

[4] = molecular target: T11, Thermococcus gammatolerans …; experiment: as above
Protocol: as §3, §4

[5] = molecular target: T12, human insulin-like growth factor-1 …; experiment: as above
Protocol: as §3, §4

[6] = molecular target: T13, recombinant native IGF-2 (Peprotech Inc. Cat.#100-12) (human, UniProt P01344 25-91); experiment: as above
T13 construct: The sentence on the bought protein names no species; also called insulin-like growth factor-2
Protocol: as §3, §4

[7] = molecular target: T9, Thermus thermophilus wild type SlyD …; experiment: as above
Protocol: as §3, §4

Binder | binding result (SEQ ID NO 43) | binding result (SEQ ID NO 44) | binding result (SEQ ID NO 45) | binding result (SEQ ID NO 46) | binding result (SEQ ID NO 47) | binding result (SEQ ID NO 48) | binding result (SEQ ID NO 49) | binding result (SEQ ID NO 50) | reactivity [mE] [1] | reactivity [mE] [2] | binding result [3] | binding result [4] | Kd [5] | koff [5] | kon [5] | t1/2-diss [5] | binding result [6] | binding result [7]
MAb<h-IGF-1>M-11.11.17 (antibody, V domains shown, Mouse monoclonal IgG from a hybridoma, raised with Thermus thermophilus SlyD-IGF-1(74-90); also called MAb 11.11.17; mAb<IGF1>M-11.11.17) VH: QVQLQQSGAELVRPGSSVKISCKASGYAFSNLWMNWVKQRPGQGLEWIGQIYPGDGDTNYYGDFKGKATLTADSSSSTAYMQLSRLTSEDSAVYFCARIGYYGMDYWGQGTSVTVSS VL: DVVLTQTPLSLPVNIGDEASISCKSTKSLLSSDGLTYLDWYLQKPGQSPQVLIYLVSNRFSGVPDRFSGSGSGTDFTLKISRVEAEDLGVYYCFQSNYLPTFGAGTKLELK | binds | binds | binds | binds | binds | binds | binds | binds | 2430 mE | 32 mE | no binding (tested: 90 nM) | no binding (tested: 90 nM) | 0.01 nM | 2.1e-05 s⁻¹ | 2e+06 M⁻¹ s⁻¹ | 9.33 h | no binding (tested: 90 nM) | no binding (tested: 90 nM)
MAb<h-IGF-1>M-10.07.09 (antibody, V domains shown, Mouse monoclonal antibody from a hybridoma, raised with Thermus thermophilus SlyD-IGF-1(74-90); In SPR it was captured from clone culture supernatant through anti-mouse IgG Fc; also called MAb 10.07.09; M-10.7.9) VH: QVQLQQSGAELVRPGSSVKISCKASGYAFSSYWMNWVKQRPGQGLEWIGQIYPGDGDTNHNGKFKGKATLTADKSSSTVYMQLSSLTSEDSAVYFCARSGDYYGKDYWGQGTTLTVSS VL: DIVLTQTPPSLPVNMGQKATISYKATKSLLNTDGYTYMHWNQQKPGQPPKLLIYLVSNRESGVPDRFSGSGSGTDFTLNINTVEEEDAATYYCHHSNELPHTFGAGTKLEIK |  |  |  |  |  |  |  |  | 2110 mE |  |  |  | 1.6 nM | 0.0015 s⁻¹ | 920000 M⁻¹ s⁻¹ | 0.133 h |  | 
